Experimental findings from patent publication US9976134B2, “Thermolysin variants” (Danisco US Inc., priority 2007, dated 2018) are described below.

Data set [1] deals with T1, thermolysin (Bacillus thermoproteolyticus, UniProt P00800).
T1 construct: purchased Sigma
T1 sequence (P00800 233-548): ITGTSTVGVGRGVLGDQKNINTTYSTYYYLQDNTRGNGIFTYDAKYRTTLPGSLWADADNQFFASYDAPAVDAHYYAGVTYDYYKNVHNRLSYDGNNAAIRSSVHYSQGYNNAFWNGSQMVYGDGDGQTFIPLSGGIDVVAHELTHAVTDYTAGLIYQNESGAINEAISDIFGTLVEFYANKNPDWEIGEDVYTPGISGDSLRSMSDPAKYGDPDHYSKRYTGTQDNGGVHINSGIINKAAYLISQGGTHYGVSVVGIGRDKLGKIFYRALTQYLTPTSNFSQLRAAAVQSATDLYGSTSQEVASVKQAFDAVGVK
Briefly: Stabilisation of thermolysin in Unilever ALL Small and Mighty detergent by metalloproteinase inhibitors (SDS-PAGE). The settings on record: thermolysin 800 μg/ml in Unilever ALL Small and Mighty, FIG. 8. As for the experimental part: Zinc Chloride, Phosphoramidon, Galardin are known metalloproteinase inhibitors. They were purchased from Sigma and dissolved in water or DMSO. Different concentrations of the inhibitors were premixed with thermolysin (also referred to as Proteinase-T or PrT) for 10 min at room temperature. Then the inhibitors were added into Unilever detergent ALL Small and Mighty so that the final concentration of thermolysin was 800 μg/ml in a total volume of 1 ml. At different time points, samples were taken and precipitated with TCA. Briefly, 10 μl sample of detergent with enzyme was added into 500 μl of 0.2 N HCl on ice, and then 500 μl of 20% TCA was added. The tubes were mixed and incubated on ice for 20 min. The pellet was collected and washed with 90% ice-cold acetone. The pellet was dissolved in sample loading buffer (Invitrogen) for SDS-PAGE analysis.

A short description of data set [2]: Stability assay in 25% TIDE 2X detergent with DTPA (residual Abz-AGLA-Nba protease activity). The format is physicochemical. Conditions: 60 min at 32°C; variant residual AGLA activity divided by wild-type residual activity. The method, boiled down:
(§1)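 Thermolysin variant culture supernatants stressed in TIDE 2× detergent, with or without DTPA: 60 min at 32° C or 180 min at 50° C. Residual versus unstressed activity on Abz-AGLA-Nba read kinetically at 25° C (Ex 350/Em 420). Performance index is variant residual activity divided by wild-type thermolysin residual activity.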

Data set [3] is described as follows: Stability assay in 25% TIDE 2X detergent without DTPA (residual Abz-AGLA-Nba protease activity). The format is physicochemical. The settings on record: 180 min at 50°C; variant residual AGLA activity divided by wild-type residual activity. The method, boiled down: as §1
For data set [4] the following is noted: TIDE 2X 0.78 g/l, 6 gpg, pH 8.2, 30 min at 20°C, A405; variant vs wild-type thermolysin at same protein concentration.

Turning to `CNC(=O)[C@H](Cc1c[nH]c2ccccc12)NC(=O)[C@@H](CC(=O)NO)CC(C)C` [Galardin], in data set [1] (1 mM inhibitor), the “stabilisation of thermolysin in detergent” value is “significantly stabilize thermolysin in detergent”.
`CC(C)C[C@H](NP(=O)(O)O[C@@H]1O[C@@H](C)[C@H](O)[C@@H](O)[C@H]1O)C(=O)N[C@@H](Cc1c[nH]c2ccccc12)C(=O)O` [Phosphoramidon]: the “stabilisation of thermolysin in detergent” value in data set [1] (500 μM inhibitor) is given as “significantly stabilize thermolysin in detergent”.

B1: Q128I: single-substitution thermolysin variant (SEQ ID NO:3 numbering) (protein, listed as Geobacillus caldoproteolyticus)
chain: ITGTSTVGVGRGVLGDQKNINTTYSTYYYLQDNTRGNGIFTYDAKYRTTLPGSLWADADNQFFASYDAPAVDAHYYAGVTYDYYKNVHNRLSYDGNNAAIRSSVHYSQGYNNAFWNGSQMVYGDGDGITFIPLSGGIDVVAHELTHAVTDYTAGLIYQNESGAINEAISDIFGTLVEFYANKNPDWEIGEDVYTPGISGDSLRSMSDPAKYGDPDHYSKRYTGTQDNGGVHINSGIINKAAYLISQGGTHYGVSVVGIGRDKLGKIFYRALTQYLTPTSNFSQLRAAAVQSATDLYGSTSQEVASVKQAFDAVGVK
Turning to B1, the “PI (relative stability), 25% TIDE 2X with DTPA” value in data set [2] was 1.32. The “PI (relative stability), 25% TIDE 2X without DTPA” value in data set [3] turned out to be 1.19. Besides, the “PI (performance index), stain removal” value in data set [4] was determined as 1.34.

B2: Q128M: single-substitution thermolysin variant (SEQ ID NO:3 numbering) (protein, listed as Geobacillus caldoproteolyticus)
chain: ITGTSTVGVGRGVLGDQKNINTTYSTYYYLQDNTRGNGIFTYDAKYRTTLPGSLWADADNQFFASYDAPAVDAHYYAGVTYDYYKNVHNRLSYDGNNAAIRSSVHYSQGYNNAFWNGSQMVYGDGDGMTFIPLSGGIDVVAHELTHAVTDYTAGLIYQNESGAINEAISDIFGTLVEFYANKNPDWEIGEDVYTPGISGDSLRSMSDPAKYGDPDHYSKRYTGTQDNGGVHINSGIINKAAYLISQGGTHYGVSVVGIGRDKLGKIFYRALTQYLTPTSNFSQLRAAAVQSATDLYGSTSQEVASVKQAFDAVGVK
As to B2, the “PI (relative stability), 25% TIDE 2X with DTPA” value in data set [2] is recorded as 1.06. Further, the “PI (relative stability), 25% TIDE 2X without DTPA” value in data set [3] is 1.09. In data set [4], the “PI (performance index), stain removal” value stood at 1.10.

B3: Q128Y: single-substitution thermolysin variant (SEQ ID NO:3 numbering) (protein, listed as Geobacillus caldoproteolyticus)
chain: ITGTSTVGVGRGVLGDQKNINTTYSTYYYLQDNTRGNGIFTYDAKYRTTLPGSLWADADNQFFASYDAPAVDAHYYAGVTYDYYKNVHNRLSYDGNNAAIRSSVHYSQGYNNAFWNGSQMVYGDGDGYTFIPLSGGIDVVAHELTHAVTDYTAGLIYQNESGAINEAISDIFGTLVEFYANKNPDWEIGEDVYTPGISGDSLRSMSDPAKYGDPDHYSKRYTGTQDNGGVHINSGIINKAAYLISQGGTHYGVSVVGIGRDKLGKIFYRALTQYLTPTSNFSQLRAAAVQSATDLYGSTSQEVASVKQAFDAVGVK
As for B3, in data set [2], the “PI (relative stability), 25% TIDE 2X with DTPA” value worked out at 1.09. The “PI (relative stability), 25% TIDE 2X without DTPA” value in data set [3] stood at 1.05. The “PI (performance index), stain removal” value in data set [4] turned out to be 1.13.

B4: Y151N: single-substitution thermolysin variant (SEQ ID NO:3 numbering) (protein, listed as Geobacillus caldoproteolyticus)
chain: ITGTSTVGVGRGVLGDQKNINTTYSTYYYLQDNTRGNGIFTYDAKYRTTLPGSLWADADNQFFASYDAPAVDAHYYAGVTYDYYKNVHNRLSYDGNNAAIRSSVHYSQGYNNAFWNGSQMVYGDGDGQTFIPLSGGIDVVAHELTHAVTDNTAGLIYQNESGAINEAISDIFGTLVEFYANKNPDWEIGEDVYTPGISGDSLRSMSDPAKYGDPDHYSKRYTGTQDNGGVHINSGIINKAAYLISQGGTHYGVSVVGIGRDKLGKIFYRALTQYLTPTSNFSQLRAAAVQSATDLYGSTSQEVASVKQAFDAVGVK
Turning to B4, in data set [2], the “PI (relative stability), 25% TIDE 2X with DTPA” value is 1.25. In addition, the “PI (relative stability), 25% TIDE 2X without DTPA” value in data set [3] is reported as 1.05. Moreover, in data set [4], the “PI (performance index), stain removal” value was found to be 1.19.

B5: Y151T: single-substitution thermolysin variant (SEQ ID NO:3 numbering) (protein, listed as Geobacillus caldoproteolyticus)
chain: ITGTSTVGVGRGVLGDQKNINTTYSTYYYLQDNTRGNGIFTYDAKYRTTLPGSLWADADNQFFASYDAPAVDAHYYAGVTYDYYKNVHNRLSYDGNNAAIRSSVHYSQGYNNAFWNGSQMVYGDGDGQTFIPLSGGIDVVAHELTHAVTDTTAGLIYQNESGAINEAISDIFGTLVEFYANKNPDWEIGEDVYTPGISGDSLRSMSDPAKYGDPDHYSKRYTGTQDNGGVHINSGIINKAAYLISQGGTHYGVSVVGIGRDKLGKIFYRALTQYLTPTSNFSQLRAAAVQSATDLYGSTSQEVASVKQAFDAVGVK
As for B5, the “PI (relative stability), 25% TIDE 2X with DTPA” value in data set [2] is recorded as 1.18. Besides, the “PI (relative stability), 25% TIDE 2X without DTPA” value in data set [3] came to 1.10. For the same molecule, the “PI (performance index), stain removal” value in data set [4] was 1.13.

B6: T049N: single-substitution thermolysin variant (SEQ ID NO:3 numbering) (protein, listed as Geobacillus caldoproteolyticus)
chain: ITGTSTVGVGRGVLGDQKNINTTYSTYYYLQDNTRGNGIFTYDAKYRTNLPGSLWADADNQFFASYDAPAVDAHYYAGVTYDYYKNVHNRLSYDGNNAAIRSSVHYSQGYNNAFWNGSQMVYGDGDGQTFIPLSGGIDVVAHELTHAVTDYTAGLIYQNESGAINEAISDIFGTLVEFYANKNPDWEIGEDVYTPGISGDSLRSMSDPAKYGDPDHYSKRYTGTQDNGGVHINSGIINKAAYLISQGGTHYGVSVVGIGRDKLGKIFYRALTQYLTPTSNFSQLRAAAVQSATDLYGSTSQEVASVKQAFDAVGVK
Consider B6, for which, in data set [2], the “PI (relative stability), 25% TIDE 2X with DTPA” value amounted to 1.03. Besides, the “PI (relative stability), 25% TIDE 2X without DTPA” value in data set [3] is listed as 1.07. In data set [4], the “PI (performance index), stain removal” value is 1.10.

B7: Q128V: single-substitution thermolysin variant (SEQ ID NO:3 numbering) (protein, listed as Geobacillus caldoproteolyticus)
chain: ITGTSTVGVGRGVLGDQKNINTTYSTYYYLQDNTRGNGIFTYDAKYRTTLPGSLWADADNQFFASYDAPAVDAHYYAGVTYDYYKNVHNRLSYDGNNAAIRSSVHYSQGYNNAFWNGSQMVYGDGDGVTFIPLSGGIDVVAHELTHAVTDYTAGLIYQNESGAINEAISDIFGTLVEFYANKNPDWEIGEDVYTPGISGDSLRSMSDPAKYGDPDHYSKRYTGTQDNGGVHINSGIINKAAYLISQGGTHYGVSVVGIGRDKLGKIFYRALTQYLTPTSNFSQLRAAAVQSATDLYGSTSQEVASVKQAFDAVGVK
For the molecule B7, the “PI (relative stability), 25% TIDE 2X with DTPA” value in data set [2] is reported as 1.45. For the same molecule, the “PI (relative stability), 25% TIDE 2X without DTPA” value in data set [3] stood at 1.20. Also, the “PI (performance index), stain removal” value in data set [4] is 1.07.
